Laboratory results as given in publication PMC6695210, “Bipartite interface of the measles virus phosphoprotein X domain with the large polymerase protein regulates viral polymerase dynamics” (PLoS Pathogens, 2019).

Assays:
Assay in all cases: native gel or EMSA; native PAGE (3–12% Bis-Tris gradient gels, G-250 additive) of cleared lysates of transfected cells, immunoblot; trimeric and dimeric GCN4 variants as mobility reference
[1] = target: MeV P with residues 303–377 replaced by the tetrameric mutant of the yeast GCN4 coiled-coil (measles virus (strain IC-B) | yeast) (UniProt Q9WMB4)
[2] = target: MeV P-GCN4_(303-360), P with OD residues 303–360 replaced by the tetrameric mutant of the yeast GCN4 coiled-coil (measles virus (strain IC-B) | yeast) (UniProt Q9WMB4)
[3] = target: the molecule itself

Row | Molecule | stoichiometry N [3] | further results
1 | MeV P with residues 303–377 replaced by the tetrameric mutant of the yeast GCN4 coiled-coil (from UniProt Q9WMB4 1-302; Q9WMB4 378-507) |  | stoichiometry N [1]: 4
2 | MeV P-GCN4_(303-360), P with OD residues 303–360 replaced by the tetrameric mutant of the yeast GCN4 coiled-coil (from UniProt Q9WMB4 1-302; Q9WMB4 361-507) |  | stoichiometry N [2]: 4
3 | MeV P (361–364)Ala, P with residues 361–364 substituted with alanines (natural protein, measles virus (strain IC-B), UniProt Q9WMB4 1-507, looked up, MeV strain IC-B phosphoprotein P; of the old residues only S361 is printed in the text; also called M1; source: transiently transfected cells, in lysate; not shown: HA, C-terminal, kept) MAEEQARHVKNGLECIRALKAEPIGSLAVEEAMAAWSEISDNPGQDRATCKEEEAGSSGLSKPCLSAIGSTEGGAPRIRGQGSGESDDDAETLGIPSRNLQASSTGLQCYHVYDHSGEAVKGIQDADSIMVQSGLDGDSTLSGGDDESENSDVDIGEPDTEGYAITDRGSAPISMGFRASDVETAEGGEIHELLKLQSRGNNFPKLGKTLNVPPPPNPSRASTSETPIKKGTDARLASFGTEIASLLTGGATQCARKSPSEPSGPGAPAGNVPECVSNAALIQEWTPESGTTISPRSQNNEEGGDYYDDELFSDVQDIKTALAKIHEDNQKIISKLESLLLLKGEVESIKKQINRQNISIAAAAGHLSSIMIAIPGLGKDPNDPTADVELNPDLKPIIGRDSGRALAEVLKKPVASRQLQGMTNGRTSSRGQLLKEFQLKPIGKKVSSAVGFVPDTGPASRSVIRSIIKSSRLEEDRKRYLMTLLDDIKGANDLAKFHQMLMKIIMK | 4 | 
4 | MeV phosphoprotein (P), wild type (natural protein, measles virus (MeV) strain IC-B phosphoprotein P, codon-optimized synthetic ORF; ends at residue 507 by the printed limits of P-XD (459–507); also called wild type P; wt P; not shown: HA, C-terminal, kept) MAEEQARHVKNGLECIRALKAEPIGSLAVEEAMAAWSEISDNPGQDRATCKEEEAGSSGLSKPCLSAIGSTEGGAPRIRGQGSGESDDDAETLGIPSRNLQASSTGLQCYHVYDHSGEAVKGIQDADSIMVQSGLDGDSTLSGGDDESENSDVDIGEPDTEGYAITDRGSAPISMGFRASDVETAEGGEIHELLKLQSRGNNFPKLGKTLNVPPPPNPSRASTSETPIKKGTDARLASFGTEIASLLTGGATQCARKSPSEPSGPGAPAGNVPECVSNAALIQEWTPESGTTISPRSQNNEEGGDYYDDELFSDVQDIKTALAKIHEDNQKIISKLESLLLLKGEVESIKKQINRQNISISTLEGHLSSIMIAIPGLGKDPNDPTADVELNPDLKPIIGRDSGRALAEVLKKPVASRQLQGMTNGRTSSRGQLLKEFQLKPIGKKVSSAVGFVPDTGPASRSVIRSIIKSSRLEEDRKRYLMTLLDDIKGANDLAKFHQMLMKIIMK | 4 | 
